Target: human IL2Rα (human) (UniProt P01589)
Assay: SPR, IL2Rα captured on Protein A chip, IL2 at 100 nM

Chain of human IL2Rα (human) (P01589 22-213 limits assumed): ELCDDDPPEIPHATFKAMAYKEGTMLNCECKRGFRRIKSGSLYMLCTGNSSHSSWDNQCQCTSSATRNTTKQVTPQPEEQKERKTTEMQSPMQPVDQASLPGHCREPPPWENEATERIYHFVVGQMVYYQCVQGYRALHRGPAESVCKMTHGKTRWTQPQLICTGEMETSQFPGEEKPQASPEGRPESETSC

B1: EP225 (ligand)
chain: APTSSSTKKTQLQLEHLLLDLQMILNGINNYKNPKLTRMLTAKFYMPKKATELKHLQCLEEELKPLEEVLNLAQSKNFHLTARDAVDNMRVIIQELKGSETTFMCEYADETATIVEFLNRWITFSQSIISTLTGSHHHHHH
Work on B1 yielded an RU (at 100 nM) of 7.4 RU and a Relevant binding to WT IL2 (%) of 5.21%.
